Assay: yeast display, Sf9 membrane polyspecificity reagent, FACS + sequencing; frameworks hold sequencing errors
Procedure, shortened: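 Sorting gates, low and high (top ~1%), were placed on anti-HA fluorescence to track expression and on streptavidin fluorescence to track reagent binding. A clone's polyreactivity label is taken from the gate it came out of. The reagent was 10% biotinylated, detergent-solubilized Sf9 membrane, applied for 1 hour at 4 °C to galactose-induced yeast display cells.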

Sequence | polyreactivity (PSR sort gate)
QVQLVESGGGLVQAGGSLRLSCAASGSTFPDNAMGWYRQAPGKERELVAAISFSSGSTYYADSVKGRFTISRDNAKNTVYLQMNILKPEDTAVYYCAVANPSQYEWIAYYYWGQGTQVTVSS | low polyreactivity
QVQLVESGGGLVQAGGSLRLSCAASGFTFNWNTMGWYRQAPGKERELVAAISSGGITYYADSVKGRFTISRDNAKNTVYLQMNSLKPEDTAVYYCNVRPFRPHNRYGYWGQFTQVTVSS | high polyreactivity
QVQLVESGGGLVQAGGSLRLSCAASGSTLPNNAMGWYRQAPGKERELVAAISWRGTRTYYADSVKGRFTISRDNAKNTVYLQMNSLKPEDTAVYYCAAGGVGAYDYWGQGTEVTVSS | high polyreactivity
QVQLVESGGGLVQEGGSLRLSCAASGFTFSLNTMGWYRQAPGKERELVAAINSGDSTYADSVKGRFTISRDNAKNTVYLQMNSLKPEDTAVYYCNADPDWWYPYNYWGQGTQVTVSS | low polyreactivity
QVQLVESGGGLVQAGGSLRLSCAASGIISRSYTMGWYRQAPGKERELVAVISSSGGSTYYADSVKGRFTISRDNAKNTVYLQMNSLKPEDTAVYYCAARPVTRFQGSDYWGQGTQVTVSS | high polyreactivity
QFQLVESCGGLVQAGGTLRLSCAASGFIFDIYERGWYRQAPGKERELVAAITWNSGSTHYADSVKGRFTISRDNAKKTVYLQMNSLNPDDTAVYYCAAVEVTYAYYPYDYCGQGTQVTVSS | low polyreactivity
QVQLVESGGGLVQAGGSLRLSCAASGSIFCSYAMAWYRQAPGKERELVASITRSGGSTYYADSVKGRFTISRDNAKNTVYLQMNSLKPEDTAVYYCNARRTTRWGSSKYEYDYWGQGTQVTVSS | high polyreactivity
QVQLVESGGGLVQAGGSLRLSCAASGRIFGSYALGWYRQAPGKERELVAAISSGGSTSYADSVKGRFTISRDNAKNTVYLQMNSLKPEDTAVDYCNRLRLFRGRGDYWGQGTQVTVSS | high polyreactivity
QVQLVESGGGLVQAGGSLRLSCAASGIIFDSNVMGWYRQAPGKERELVAAISRSGSRTYYADSVKGRFTISRDNSKNTVYLEMNSLKPEDTAVYYCATDSHTADEYEHWGQGTQVTVSS | high polyreactivity
QVQLVESGGGLVQAGGSLRLSCAASGFTFEYNDMGWYRQAPGKERELVASISYDSDSTYYAVSVKGRFTISRDNAKNTVYLQMNSLKPEDTAVYYCNAGSSYHEYGYWGQGTQVTVSS | high polyreactivity
QVQIVESGGGLVQAGGSLRLSCAASGFIFGPYAMGWYRQAPGKERELVAAMSRSGGDTYYADSVKGRFTISRDFEKNTVYLQMNSLKPEDTAVYYCAAVGKYSAYNYWGQGTQVTVSS | high polyreactivity
QVQLVESGGGLVQAGGSLRLSCAASGGIFPGNTMGWYRLAPRKESELVAAISNGVSTNYADSVKGRFTISRDNAKNTVYLQMNSLKPEDTAVYYCAADWSWWDGEDYHFEYDYWGQGTQVTVSS | low polyreactivity
HVQLVESGGGLVQAGGSLRLSCAASGLIFKRYAIGGYRKAPGKERELVAAISYSGGSTYYEDSVKGRFTISRDYAKNTVYLQMNSLKPEDTAVYYCNAQSYRSDSAYHYKYDYWGQGTQVTVSS | high polyreactivity
QVQLVESGGGLVQAGGSLRLSCAASGSSFSHNVMGWYRQAPRKERELVATINWSGGSTYYADSVKGRFTISRDNAKKSDYLQMNSLKPEDTAVYYCAADRQITVYAYDYWGQGTQVTVSS | low polyreactivity
QVQLVESGGGLVQAGGSLRLSCASSGRTFYSYVMGWYRQAHGKERELVAGISKRGGRTYYADSVKGRFTISRDNAKNTVYLEMYSLKPEDTAVYFCADDFPHTYWTFDFDYWGQGTQVTVSS | high polyreactivity
QVQLVESGGGLVQAGGSLRLSCAAYGRTFGPNVMGWYRQAPGKERELVAVITSSGGRTYYADSVKGRFTISRDNAKNTVFLQMNSLKPEDTAVYSCAADAKKFVGTKNAEHVYWGQGTQVTVSS | low polyreactivity
QVQLVESGGGLVQAGGSLRLSCAASGRIFRYYAMGWSRQAPGKERELVAAISSSGGSTYYADSVKGRFTISRDNAKNTVYLQMNSLKPEDTAVYYCAGVFRLGVGYEYWGQGTQVTVSS | high polyreactivity
QVQLVETGGGLVQAGGSLRLSCAASGSTLTYYTMGWYRQAPGKERELVARISWSSGRTYYAVSVKGRFTISRDNAMNTVYLQMNSLKPEDTAVYYCNADRTYYRGLDYWGQGTQVTVSS | high polyreactivity
QVQLVESGGGLVQAGGSLRLSCAASGRIFRSYAMGWYRQAPGKERELVAAISRSGGSTYYADSVKGRFTISRDNAKNTVYLQMNSLKPEDTAVYYCAGVYTYPLGYYHYTYDYWGQGTQVTVSS | low polyreactivity
QVQLQGSGGGLAQAGDSLRLSCAASGTIFSEYNNGLVSPGAGQRTRTCCRYWCWGNTYYADSAKGRFTTSRDNAKNTVYLQKNSLKPEDTAVYYCAFNRPYPSRHIYRGQGTQVTVSS | high polyreactivity
QVQLVESGGGLVQAGGSLRLSCAASGSIFTHNDMGWYRQAPGQERELVAAISSGGSTNYADSVTGRFTISRDNAKNTVYLQMNSLIPVETAVYYCAKSIDGWYWRRRRYDYWGQGTQVTVSS | low polyreactivity
QVQLVESGGGLVQAGGSLRLSCAASGSIFYNAMGWYRQAPGKERELVAAITSGGRTYYADSVKGRFTISRDNAKNTVYLQMNSLKPEDTAVDYCAADVRRVRVGKYDYWGQGTQVTVSS | high polyreactivity

Sequence | polyreactivity (PSR sort gate)
QVHLVESGGGLVQAGGSLRLSCAASGFTFRRNAMGWYRQAPGKERELVAAITRSGGVTYYADSVKGRFTISRDNAKNTVYLQMNSMKPEDTAVYYCATQARLYGGYDRYAGSYDYWGQGTQVTVSS | high polyreactivity
QVQLVESGGGLVQAGGRLRLSCAASGSTFIGNAMGWYRQAPGKERELVAAISRTGGSTYADSVKGRFTISRDNAKNTVYLQMNSLKPEDTAVYYCAAKYYYLYYYWGQGTQVTVSS | high polyreactivity
QVQLVESGGGLVQAGGSLRLSCAASGSIYDSYAMGWYRQAPGKERELVATINTSGGSTYYADSVKGRFTIHDNAKNTVYLQMNSLKPEDTAVYYCNAGRWVYWQNNFGDYGYWGQGTQVTVSS | low polyreactivity
QVQLVESAAGLVQAGGSLRLSCPASGITFYYYAKGWYRQEPGKESELVAAISGGGDSTYYADSVKGRFTISRDNAKNTVYLQMNSLKPEDTAVYYCAAGQDYWVPDDSLFYYWGQGTQVTVSS | low polyreactivity
QVQLVESGGGLVQAGGSLRLSCAASGSIFGVNAMGWYRQAHGKERELVASITGGDSTNYADSVKGRFTISRDNAKNTVYLLMNSLKPEDTAVYYCAKDHYYRYEEGDYWGQGTQVTVSS | low polyreactivity
QVQLVESGGRLVQAVASHRLSCAASGSIFRKYALGCYRQAPGKERELVAAIRSSGGSTYYADSVKGRFTISRDNAKNTVYLQMISLIPEDTAVYYCAARYYRPSRYDYWGQGTQVTVSS | high polyreactivity
QVQLVESGGGLVQAGGSLRLSCAASGSIFVDYAMGWYRQAPGKEMELVAAISSGGGSTYYADSVKGRFTISRDNAKNTVYLQMNSLKPEDTAVYYCAASVYGQHAGPGRWYTFYYWGQGTQVTVSS | low polyreactivity
QVQLVESGGGLVQAGGSLRLSCAASGRIFTYNTMGWYRQATGKEREFVASITYSGSSTYYADSVKGRFTISRDNAKNTVYLQMNSLKPEDTAVYYCATRYGYSDGDYWGQRTQVTVSS | low polyreactivity
QVQLVESGGGLVQAGGSLRLSCAASGIIFASNAMGWYIQAPGKERELVATINWTDSTTYYADSVKGRFTISRDNAKNNVYLLMNSLKPEDTAGYYCNAVPHWFYRYGRYDYWGQGTQVTVSS | low polyreactivity
QVQLVESGGGLVQAGGSLRLSCAASGITSSIYAMGWDRQAPGKERELVAVSTTSGGSTYYADSVKGRYTISRDNAKNTVYLQMNSLKPEDTAVYYCAADSYFYLDLLEDYWGQGTKVTVSS | low polyreactivity
QVQLVESGGGLVQAGGSLRLSCAASAFILQRNAMGWYRQAHGKERELVAAISSRGGSTYYADSVKGRFTISRDNAKNTVYLQMNSLKPEDTAVYYCNRRSRAHGYGSQYDYWGQGTQVTVSS | low polyreactivity
QVQLVESGGGLVQAGGSLRLSCAASGGIFYGYAMGWYRQAPGKERELVAAITTGGSTNYADSVKGRFTISRDNAKNTVYLQMNSLKPEDTAVYYCAAPVNRAQGPYARRVERYGYWGQGTQVTVSS | low polyreactivity
QVQLVESGGGLVQAGGSLRLSCAASGRTFYVYAMGWYRQAPGKERELVAAIDFSSTSTYADSVKGRFTISRDNAKNTVYLQMNSLKPEDTAVYYCNVDPDLGGFDYWGQGTQVTVSS | low polyreactivity
QVQLVESGGGLVQAGGSLRLSCAASGSIFVIYAMGWYRQAPGKERELVATISGGGGTNYADSVKGRFTISRDNAKNTVYLQMNSLNPEDTAVYYCAARSKVHRWRKRYDYWGQGTQVTVSS | high polyreactivity
QVQLEESGGGLVQAGGSLRLSCAASGFIYAHYAMGWYRQAPGKERELVAAISSRGGSTYYADSVKGRFTISRDYAKNPVYLQINSLKPEDTAVYYCAKARHRPARGYEYWGLGTQVTVSS | high polyreactivity
QVQLVESGGGLVKAGGSLRLSCAASGSTFSRYAMGWYRQAPGKEREFVADITFRTSSTNYADSVKGRFTISRDNAKNTVYLQMNSLKPEDPAVYYCATDTQYKSYAHDYWGQGTQVTVSS | low polyreactivity
QVQLVESGGGLVQAGGSLRLSCAASGRTFSQNAMGWYRQAPGKERELVAAISWSGGRTYYADSVKGRFTISRDNAKNTVYLQMNSLKPEDTAVYYCAKSQHRTYYYWGQGTQVTVSS | high polyreactivity
QVQLVESGGGLVQAGGSLRLSCAASGRIFSVYTMGWYRQAPGKERELVATISSGGRTNYADSVKGRFTISRDNAKNTVYLQLNSLKPEDTAVYYCNADYFGQESWWMDYWGQGTQVTVSS | low polyreactivity
QVQLVESGGGLVQAGGSLRLSCAASGITFYQYAMGWYRQAPGTETELVAGISYSGGSTYYADSVKGRFTISRDNAKNTVYLQMNSLKPEDTAVYYCAAVQPVGLYPRTKYYYWGQGTQVTVSS | high polyreactivity
QVQLVESGGGLVQAGGSLRLSCAPSGSTFGWYAMGWYRQAPGKESELFAAITGDSASTYYADSVKGRFTISRDNAKNTVYLQMNSLKQEDTAVYYCAATKFSDFAYEAVIGYGYWGQGTQVTVSS | low polyreactivity
QVQLVESGGGLVQAGGSLRLSCAASGLIFIVYAMGWSRQAPGKERELVAAISWSGGSTYYADSVKGRFTISRDNAKNTVYLQMNSLKPEDTAVYYCAAPSSVRGKVISADYGYWGQGTQVTVSS | high polyreactivity
